According to the supplement of paper PMC10724198:
± gives the standard deviation of the averaged measurements.

System: Saccharomyces cerevisiae
Assay: protein stability index of tFT-peptide fusion (C-terminal peptide) (PSI (0-1 scale)); higher = more stable (slower turnover)
Settings: genetic background: wild type; temperature: 30 C
Method: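 MPS profiling in S. cerevisiae of the yeast C-terminome library: the last 12 aa of each annotated ORF are fused to the C-terminus of a sfGFP-mCherry timer, after a GGGS linker. Cells are FACS-sorted into 8 mCherry/sfGFP bins and deep-sequenced. PSI runs from 0 (unstable) to 1 (stable); wild type and das1Δ backgrounds, two technical replicates each.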

Row | Sequence | protein stability index
1 | FCTVAKIIQCFL [YDR396W C-terminal 12 aa] | 0.4942 ± 0.0047
2 | FDAVTKTLEKYA [YKR070W C-terminal 12 aa] | 0.6879 ± 0.0054
3 | FDLIKLALQRKK [AGX1 C-terminal 12 aa] | 0.68 ± 0.04
4 | FDREDAMKKENK [DPH2 C-terminal 12 aa] | 0.663 ± 0.059
5 | FDYDFLFGNDFA [OAF1 C-terminal 12 aa] | 0.75 ± 0.052
6 | FFFSNSFLPASR [YJL127W-A C-terminal 12 aa] | 0.788 ± 0.11
7 | FFTIEKYSVRRS [YOL013W-A C-terminal 12 aa] | 0.681 ± 0.01
8 | FGYESTDQILKL [NNR1 C-terminal 12 aa] | 0.708 ± 0.054
9 | FHHTSKTFAFAD [YGR219W C-terminal 12 aa] | 0.674 ± 0.0088
10 | FHLRHHKGAEEH [ATP17 C-terminal 12 aa] | 0.678 ± 0.019
11 | FIAHLILTDALK [ULP1 C-terminal 12 aa] | 0.691 ± 0.039
12 | FIRFAINIHTFI [YJL009W C-terminal 12 aa] | 0.377 ± 0.011
13 | FKQKYDADVLDK [RPL11A C-terminal 12 aa] | 0.735 ± 0.047
14 | FLPINVNDVPST [RGD3 C-terminal 12 aa] | 0.708 ± 0.069
15 | FLWEMFELKLYL [YMR119W-A C-terminal 12 aa] | 0.71 ± 0.036
16 | FMKELEMSEESD [RAD4 C-terminal 12 aa] | 0.738 ± 0.028
17 | FQSEYNISDILS [CEP3 C-terminal 12 aa] | 0.745 ± 0.023
18 | FRHNRSNKKSGC [GEX2 C-terminal 12 aa] | 0.668 ± 0.069
19 | FSAGNYKLPPGI [KTR3 C-terminal 12 aa] | 0.7009 ± 0.0015
20 | FSFSIFFFFCLA [YFR035C C-terminal 12 aa] | 0.285 ± 0.0066
21 | FSFTEEPRIVMI [DCD1 C-terminal 12 aa] | 0.699 ± 0.03

Row | Sequence | protein stability index
22 | FSNAGVEMQIRK [GNA1 C-terminal 12 aa] | 0.736 ± 0.04
23 | FSSEYLLVHVQQ [YLR458W C-terminal 12 aa] | 0.654 ± 0.036
24 | FSSSVMIIMKAS [NFT1 C-terminal 12 aa] | 0.115 ± 0.0065
25 | FTFGTPIFLQLL [YFR010W-A C-terminal 12 aa] | 0.579 ± 0.1
26 | FTFIIIQLFPAL [USE1 C-terminal 12 aa] | 0.385 ± 0.015
27 | FTLVGYDKEFSD [ADH6 C-terminal 12 aa] | 0.70114 ± 0.00043
28 | FVDDNTPLEHVC [YDL086W C-terminal 12 aa] | 0.7331 ± 0.0011
29 | FVDYKTHPVGAN [RGI1 C-terminal 12 aa] | 0.7141 ± 0.0028
30 | FVFALSYPYEEI [ALG2 C-terminal 12 aa] | 0.693 ± 0.038
31 | FVKPGEICLREQ [RDH54 C-terminal 12 aa] | 0.701 ± 0.014
32 | FVNNKGNFKDLK [ARG3 C-terminal 12 aa] | 0.686 ± 0.025
33 | FWFLFPLRLPGG [IRC16 C-terminal 12 aa] | 0.5685 ± 0.0012
34 | FWNCVDGHLKYD [INM1 C-terminal 12 aa] | 0.715 ± 0.043
35 | FWTINDDYGFLT [YLR278C C-terminal 12 aa] | 0.77104 ± 0.00063
36 | GAAIAGAAAMLL [TIR3 C-terminal 12 aa] | 0.713 ± 0.022
37 | GAGVMAAAAMLL [TIR2 C-terminal 12 aa] | 0.7089 ± 0.0066
38 | GALERKLHIDEN [MAM1 C-terminal 12 aa] | 0.692 ± 0.046
39 | GAVYFFSKARKA [COX26 C-terminal 12 aa] | 0.654 ± 0.037
40 | GCVRSMLRDLQR [GCR2 C-terminal 12 aa] | 0.686 ± 0.01
41 | GEDPYADLFRDF [TPK1 C-terminal 12 aa] | 0.6846 ± 0.0053
42 | GEGGHFVIKKIS [DIT1 C-terminal 12 aa] | 0.20324 ± 5.1e-05

Row | Sequence | protein stability index
43 | GETIRVNYGSTQ [YJR154W C-terminal 12 aa] | 0.689 ± 0.039
44 | GEVVKTIIFGPE [SOR1 C-terminal 12 aa] | 0.696 ± 0.029
45 | GEYYNLIVPSLD [YGK3 C-terminal 12 aa] | 0.698 ± 0.014
46 | GFQTGSAKATSA [RPL37B C-terminal 12 aa] | 0.697 ± 0.019
47 | GGLDCKSNVFMR [PAC1 C-terminal 12 aa] | 0.723 ± 0.0089
48 | GGNKQAPGLELG [YMR242W-A C-terminal 12 aa] | 0.702 ± 0.006
49 | GIILRSCWNPRQ [YOL159C-A C-terminal 12 aa] | 0.69 ± 0.0087
50 | GILCSLMEFFTN [TDA6 C-terminal 12 aa] | 0.712 ± 0.059
51 | GKKLVQEAFRIV [YPL039W C-terminal 12 aa] | 0.675 ± 0.035
52 | GKRIIGMLHLDS [PUF4 C-terminal 12 aa] | 0.699 ± 0.01
53 | GKSSKKKNRSRK [SSH4 C-terminal 12 aa] | 0.692 ± 0.018
54 | GLEKKKKKQNNQ [NPR1 C-terminal 12 aa] | 0.662 ± 0.0018
55 | GLLFDKKKKARK [NOP19 C-terminal 12 aa] | 0.691 ± 0.043
56 | GNNNCPLHMDYI [STE5 C-terminal 12 aa] | 0.723 ± 0.015
57 | GQTSRTVTPAPN [ITC1 C-terminal 12 aa] | 0.6887 ± 0.0059
58 | GRGAISYSDITI [PEP5 C-terminal 12 aa] | 0.69 ± 0.0077
59 | GRLFEGMPGTET [ITT1 C-terminal 12 aa] | 0.71 ± 0.03
60 | GSEIDFTDYLGP [PUT3 C-terminal 12 aa] | 0.716 ± 0.017
61 | GSLLLGLISFLL [EGT2 C-terminal 12 aa] | 0.6486 ± 0.0054
62 | GSSGRLTASPVY [PEX2 C-terminal 12 aa] | 0.684 ± 0.022
63 | GTKEYCKMIDFL [YLR108C C-terminal 12 aa] | 0.688 ± 0.019

Row | Sequence | protein stability index
64 | GTKEYYKGYEYL [MRX16 C-terminal 12 aa] | 0.6641 ± 0.0017
65 | GTLESFFKRKAK [POL32 C-terminal 12 aa] | 0.707 ± 0.03
66 | GVETLLDIFMKF [ARG82 C-terminal 12 aa] | 0.706 ± 0.02
67 | GVFEADGLEAVH [YLR235C C-terminal 12 aa] | 0.7688 ± 0.0057
68 | GVRRSVRLNNRV [MCM4 C-terminal 12 aa] | 0.681 ± 0.015
69 | GVSFHVQVTMPQ [TRS33 C-terminal 12 aa] | 0.704 ± 0.049
70 | GWEVLSVYSFTR [MTQ2 C-terminal 12 aa] | 0.737 ± 0.098
71 | GWFEEVRDHKRH [SKY1 C-terminal 12 aa] | 0.753 ± 0.022
72 | GWPLKDGNKKRK [OTO1 C-terminal 12 aa] | 0.706 ± 0.065
73 | GYCFEFTLYNRK [DFR1 C-terminal 12 aa] | 0.688 ± 0.013
74 | GYKPIILYHVIH [YDL025W-A C-terminal 12 aa] | 0.598 ± 0.025
75 | GYYQRRNKRKRA [UTP20 C-terminal 12 aa] | 0.69 ± 0.046
76 | HCGARLTVIPKK [YER137C C-terminal 12 aa] | 0.688 ± 0.028
77 | HELIKKRWDDRK [NCE101 C-terminal 12 aa] | 0.679 ± 0.018
78 | HETFDFRNLKLR [YER121W C-terminal 12 aa] | 0.698 ± 0.024
79 | HETMVNGSKRRL [DIF1 C-terminal 12 aa] | 0.639 ± 0.014
80 | HEYVTINGDYRS [ARG7 C-terminal 12 aa] | 0.702 ± 0.032
81 | HFASSLVSFLSK [ICT1 C-terminal 12 aa] | 0.7183 ± 0.0037
82 | HIDIPDFAKWDI [SUL2 C-terminal 12 aa] | 0.719 ± 0.009
